Laboratory results as given in article PMC6515686, “Characterization of two flavonol synthases with iron-independent flavanone 3-hydroxylase activity from Ornithogalum caudatum Jacq” (BMC Plant Biology, 2019).

How the values were obtained:
Test in all cases: HPLC, Lineweaver-Burk
Format in all cases: biochemical, Albuca bracteata
HPLC, Lineweaver-Burk [1] = substrate: O=C1C[C@@H](c2ccc(O)cc2)Oc2cc(O)cc(O)c21; details: F3H activity, apparent Km, 2-oxoglutarate, Fe2+, ascorbate, pH 6.0, 20 °C
From the text: (§1) HPLC, Lineweaver-Burk on OcFLS1

HPLC, Lineweaver-Burk [2] = substrate: O=C1c2c(O)cc(O)cc2O[C@H](c2ccc(O)cc2)[C@H]1O; details: FLS activity, apparent Km, 2-oxoglutarate, Fe2+, ascorbate, pH 6.0, 20 °C
From the text: as §1

HPLC, Lineweaver-Burk [3] = substrate: O=C1C[C@@H](c2ccc(O)cc2)Oc2cc(O)cc(O)c21; details: F3H activity, apparent Km, 2-oxoglutarate, Fe2+, ascorbate, pH 6.0, 20 °C; remark: listed apart in the source
From the text: (§2) HPLC, Lineweaver-Burk on OcFLS2

HPLC, Lineweaver-Burk [4] = substrate: O=C1c2c(O)cc(O)cc2O[C@H](c2ccc(O)cc2)[C@H]1O; details: FLS activity, apparent Km, 2-oxoglutarate, Fe2+, ascorbate, pH 6.0, 20 °C; remark: listed apart in the source
From the text: as §2

Protein | Km (HPLC, Lineweaver-Burk [1]) [µM] | Vmax (HPLC, Lineweaver-Burk [1]) [µM/min] | Km (HPLC, Lineweaver-Burk [2]) [µM] | Vmax (HPLC, Lineweaver-Burk [2]) [µM/min] | Km (HPLC, Lineweaver-Burk [3]) [µM] | Vmax (HPLC, Lineweaver-Burk [3]) [µM/min] | Km (HPLC, Lineweaver-Burk [4]) [µM] | Vmax (HPLC, Lineweaver-Burk [4]) [µM/min]
OcFLS1 (Albuca bracteata) (protein) MEVERVQAIASMTASLGTIPAEFIRSEHERPDITTYHGPVPDIPVVDLSATDRAGVTKAIAEAAQEWGIFQVVNHRVPIEAIKELQRVGKEFFELPQEEKEAYATVPDSGSFEGYGTRLQKDLEGKKAWVDYLFHNVWPQSKITYRFWPNNPPEYRKANEEYAKYLQGVVDEMLTSLSLGLGLESHVLKEAVGGDELEYLLKINYYPPCPRPDLALGVVAHTDMSAITILVPNEVPGLQVFKDDHWFDAKYIPNALIVHIGDQIEILSNGKYKSVLHRTTVNKEKARMSWPVFCSPPGEMIVGPLPQLVSDENSAKFKTKKYKDYSYCKINKLPQ | 37.57 ± 6.316 | 2.05 | 471.3 ± 179 | 12.9 |  |  |  | 
OcFLS2 (Albuca bracteata) (protein) MEVERVQAIASMTASLGTIPAEFIRSEHERPDITTYHGPVPDIPVIDLSDTDRAAVAKAIADAAQEWGIFQVVNHGIPVEAIKELQRVGKGFFELPQEEKEAYATVPDSGSFEGYGTKLQKDLGGKKAWVDYLFHNVWPESKINYRFWPNNPPEYRKANEEYAKYLQEVVDEMLSSLSVGLGLEGHVLKEAVGGDELEYLLKINYYPPCPRPDLALGVVAHTDMSAITILVPNEVPGLQVFKDDHWFDAKYIPNALIVHIGDQIEILSNGKYKSVLHRTTVNKEKARMSWPVFCSPPGEMIVGPLPQLVSDENPAKFKTKKYKEYSYCKINKLPQ |  |  |  |  | 110.5 ± 20.86 | 5.82 | 525.7 ± 198.4 | 15.1
